Assay results: the nanobody polyreactivity screen of Harvey et al. (2022)

Experiment: yeast display, Sf9 membrane polyspecificity reagent, FACS + sequencing; frameworks hold sequencing errors
Method in brief: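 A nanobody's polyreactivity label depends on the gate it was sorted from. Yeast display cells were stained with 10% biotinylated, detergent-solubilized Sf9 membrane reagent for 1 hour at 4 °C, enriched on streptavidin microbeads and sorted by FACS. The low and high (top ~1%) gates were set on anti-HA fluorescence for expression and streptavidin fluorescence for reagent binding.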

For “QVQLVESGGGLVQAGGSLRLSCAASGRILYNYAMGWYRQAPGKECELVAAISSGGSTNYADSVKGRFTISRDNAKNTVYFQMNSLKPEDTAVYYCAAYRGHSWRGLYRWSDYDFWGQGTQVTVSS”, which “polyreactivity (PSR sort gate)” value is on record?
Its value is “low polyreactivity”.

For “QVQLVESGGGLVQAGGSLRLSCAASGRILYPYAMGGYRQAPGKERELVAAITFIGGSTYYADSVKGRFTISRDNAKNTVYLQMNSLKPEDTAVYYCNAKPHRPSLLRWRIGNYWGQGTQVTVSS”, which “polyreactivity (PSR sort gate)” value is on record?
The value was “high polyreactivity”.

Which “polyreactivity (PSR sort gate)” value does the source give for “QVQLVESGGGLVQAGGSLRLSCAASGRILYRYAMGWYRQAPGKERELVAAISRSGGDTYYADSVKGRFTISRDNAKNTVYLQMNSLKPEDTAVYYCAASFEGSGYRYDYWGQGTQVTVSS” here?
Its value is “low polyreactivity”.

Which “polyreactivity (PSR sort gate)” value does the source give for “QVQLVESGGGLVQAGGSLRLSCAASGRILYRYAMGWYRQAPGKERELVAAITWRGGTTYYADSVKGRFTISRDNAKNTVYLQMISLKPEDTAVYYCNSDWWRTLESDYWGQGTQVTVSS” here?
The value was “low polyreactivity”.

With “QVQLVESGGGLVQAGGSLRLSCAASGRILYRYDMGWYRQAPGKERELVAAISRRGGSTTYADSVKGRFTISRDNAKNTVYLQMNSLKPEDTAVYYCATDYKYAAPTVIESDYWGQGTEVTVSS” as the sequence, how does the “polyreactivity (PSR sort gate)” value read?
The value was “high polyreactivity”.

Which “polyreactivity (PSR sort gate)” value does the source give for “QVQLVESGGGLVQAGGSLRLSCAASGRILYSYAMGWYRQEPGKERELVAAISSTGSTYYADSVKGRFTISRDNAKNTVYLQMISLKPEDTAVYYCAATFYPYQVHHYYYWGQGTQVTVSS” here?
The value was “low polyreactivity”.

For “QVQLVESGGGLVQAGGSLRLSCAASGRILYSYTMGWYRQAPGKEREFVAAITRSGGGTYYADSVKGRFTISRDNAKNTVYLQMNSLKPEDTAVYYCAYYTYYLAYGYWGQGTQVTVSS”, which “polyreactivity (PSR sort gate)” value is on record?
The value was “high polyreactivity”.

For “QVQLVESGGGLVQAGGSLRLSCAASGRILYVYVMGWYRQAPGKERELVAAITTSGDSTYYADSVKGRFTISRDNAKNTVYLQMNRLKPEDTAVYYCNAEEHDYVAHMDYWGQGTQVTVSS”, which “polyreactivity (PSR sort gate)” value is on record?
Its value is “low polyreactivity”.

For “QVQLVESGGGLVQAGGSLRLSCAASGRILYYSVMGWYRPAPGKERELVAAISSGGDTNYADSVKGRFTISRDNAKNSVYLQMNSLKPEDTAVYYCARGVDGILWTSEYDYWGQGTQVTVSS”, which “polyreactivity (PSR sort gate)” value is on record?
Its value is “low polyreactivity”.

With “QVQLVESGGGLVQAGGSLRLSCAASGRILYYYAMGWYRQAPGKERELVATITRTTGSTYYADSVKGRFTISRDNAKNTVYLQMNSLKPEDTAVYYCAARWGRWIRDNYWGQGTQVSVSS” as the sequence, how does the “polyreactivity (PSR sort gate)” value read?
Its value is “high polyreactivity”.

With “QVQLVESGGGLVQAGGSLRLSCAASGRINLYNAMGWYRQAPRKEMELVAVISYRGGSTYYADSVKGRFTISRENAKNTVYLQMNSLKPDDTAVYYCNKDKSYSGTRYDYWGQGTQVTVSS” as the sequence, how does the “polyreactivity (PSR sort gate)” value read?
The value was “high polyreactivity”.

With “QVQLVESGGGLVQAGGSLRLSCAASGRIQSVYAMGWYRQAPGKERELVAAIDYSGGSTNYADSVKGRFTISRDNGKNTVYLQMNSLKPEDTAVYYCNREGGAIAWRYLLEYLYSWGQGTQVTVSS” as the sequence, how does the “polyreactivity (PSR sort gate)” value read?
Its value is “low polyreactivity”.

Which “polyreactivity (PSR sort gate)” value does the source give for “QVQLVESGGGLVQAGGSLRLSCAASGRIQYNAMGWYSQAPGKEREFGAAISWSGGTTYYADSVKGRFTISRDTAKNTVYLQMNSLKPEDTAVYYCATPYTHWGQGTQVTVSS” here?
Its value is “high polyreactivity”.

Which “polyreactivity (PSR sort gate)” value does the source give for “QVQLVESGGGLVQAGGSLRLSCAASGRISGVNAMGWSRQAPGKERELVATISGSGGRTYYADSVKGRFTISRDNAKNTVYLQMNSLNPEDTGGYYCNSMVERGGYFSRRFDFWGQGSQVTVSS” here?
Its value is “low polyreactivity”.

Which “polyreactivity (PSR sort gate)” value does the source give for “QVQLVESGGGLVQAGGSLRLSCAASGRISGYNAMGWYRPAPGKQRELVAVITGSGGTYYADSVKGRFTISRDNAKNTVYLQMNSLKPEDSAVYYCAAGLAIRTYYPRYDYWGQGTQVTVSS” here?
The value was “low polyreactivity”.

With “QVQLVESGGGLVQAGGSLRLSCAASGRISIIYAMGWYRQAPGKERELVARISGSGGSTNYADSVKGRFTISRDNAKNTVYLQMKSLKPEDTAVYYCAAVPWRIHKYYYWGQCTQVTVSS” as the sequence, how does the “polyreactivity (PSR sort gate)” value read?
The value was “high polyreactivity”.

For “QVQLVESGGGLVQAGGSLRLSCAASGRISKIYAMGWYRQAPGKERELVAAINSGGSTNYADSVKGRFTISRDNAKNTVYLQLNSLKPEDTAVYYCAATFKSGMDYWGQGTQVTVSS”, which “polyreactivity (PSR sort gate)” value is on record?
The value was “high polyreactivity”.

Which “polyreactivity (PSR sort gate)” value does the source give for “QVQLVESGGGLVQAGGSLRLSCAASGRISLGYAMGWYRQAPGKERELVAAITRGGTTSYAHSVKGRFTISRDNAKNTVYLQMNSLKPEDTAVYYCAVPAGYFGKWTYYYWGQGTQVTVSS” here?
Its value is “high polyreactivity”.

With “QVQLVESGGGLVQAGGSLRLSCAASGRISLHNTIGWYRQAPGKERELVAAINYSGGSTYYADTVKGRFTISRDNAKNTVYLQMNSLKPEDTEVYYCAADFYQSHFYRPRYDYWGQGTQVTVSS” as the sequence, how does the “polyreactivity (PSR sort gate)” value read?
Its value is “low polyreactivity”.

With “QVQLVESGGGLVQAGGSLRLSCAASGRISNFYSMGWYIQAPGKERELVAANRSGGSTNYADSVKGRFTISRDNAKYTVYLQMNSLKPEDTAVYYCAAVTGASPTRMDYWGQGTQVTVSS” as the sequence, how does the “polyreactivity (PSR sort gate)” value read?
The value was “high polyreactivity”.

With “QVQLVESGGGLVQAGGSLRLSCAASGRISQYNAMGWYRQAPGKERELVATITRGGSTYYADSVKGRFTISRDNAKNTVYLQMNSLKPEDTAVYYCATDRYWWSGFDYWGQGTQVTVSS” as the sequence, how does the “polyreactivity (PSR sort gate)” value read?
Its value is “high polyreactivity”.

With “QVQLVESGGGLVQAGGSLRLSCAASGRISVFYAMGWYRQAPGKEMELGAAITRSGTTKYADSVKGRFTISRDNAKNTVYLQMNSLKPEDTAVYYCAARSVYYKFGYYYWGQGSQVTVSS” as the sequence, how does the “polyreactivity (PSR sort gate)” value read?
The value was “high polyreactivity”.

Which “polyreactivity (PSR sort gate)” value does the source give for “QVQLVESGGGLVQAGGSLRLSCAASGRISVFYTRGWYRQAPGKERELVAVIRTSGGRTNYADSVKGRFTISRDNAKNTVYLQMNSLKPEDTAVYYCAARVVRYGYKYYYWGQGTQVTVSS” here?
Its value is “low polyreactivity”.

Which “polyreactivity (PSR sort gate)” value does the source give for “QVQLVESGGGLVQAGGSLRLSCAASGRITGINAMGWYRPAPGKERELVAAITWRGGRKYYADSVKGRFTISRDNAKNTVYLQMNSLKPEDTAVYYCAAELQGAYYFAYYYWGQGTQVNVSS” here?
The value was “high polyreactivity”.

Which “polyreactivity (PSR sort gate)” value does the source give for “QVQLVESGGGLVQAGGSLRLSCAASGRIVDIYAMGWYRQAPGTERELVAAITWRGGSTYYADSVKGRFTISRDNAKNTVYLQMNSLKPEDTAVYYCAVDFFTPRGSYYWGQGTQVTVSS” here?
The value was “low polyreactivity”.

For “QVQLVESGGGLVQAGGSLRLSCAASGRIVFYAMGWYRQAPGKERELVAAITGSGGRTYYADSVKGRFTISRDNAKITVYLQMNSLKPEDTAVYYCAARKWRHGYQGDYWGQGTQVTVSS”, which “polyreactivity (PSR sort gate)” value is on record?
The value was “high polyreactivity”.

With “QVQLVESGGGLVQAGGSLRLSCAASGRIVGFYGMGWYRQAPGKERELVARITVGGGSTYYADSVKGRFTISRDNAKNTGYLQMNSLKPEDTAVYYCNAVYARYGSQGYEYWGQGTQVTVSS” as the sequence, how does the “polyreactivity (PSR sort gate)” value read?
Its value is “high polyreactivity”.

For “QVQLVESGGGLVQAGGSLRLSCAASGRIVRFYGMGWYRQAPGKERELVAAITDGCGTNYADSVKGRFSISRDNAKNTVYLQMNSLKPEDTAVYYCAADSRFVWSGEYWGQGTQVTVSS”, which “polyreactivity (PSR sort gate)” value is on record?
Its value is “low polyreactivity”.

With “QVQLVESGGGLVQAGGSLRLSCAASGRIVYVNVMGWYRQAPGKERELVAAINWSDGSTYYADSVKGRFTISRDNAKNTVYLQMNSLKPEETAVYYFNRRGPYGYKAWAIGTIGDLDYWGHGTQVTVSS” as the sequence, how does the “polyreactivity (PSR sort gate)” value read?
The value was “low polyreactivity”.

Which “polyreactivity (PSR sort gate)” value does the source give for “QVQLVESGGGLVQAGGSLRLSCAASGRIWLYAMGWYRQAPGKERELVAAISWTDGRTRYADSVKGRFTISRDNAKNTVYLQMNRLKPEDTAVYYCAPVVDRGYRRVKYYYWGQGTQVSVSS” here?
Its value is “high polyreactivity”.

With “QVQLVESGGGLVQAGGSLRLSCAASGRIYAMGWYRQAPGKERELVAAISRGGSTYYADSVKGRFTISRDNAKNTVYLQMNSLKPEDTAVYYCARRYASTGYDYWGQCTQVTVSS” as the sequence, how does the “polyreactivity (PSR sort gate)” value read?
Its value is “high polyreactivity”.

With “QVQLVESGGGLVQAGGSLRLSCAASGRIYDRYDMVWYRQAPVKERELVAAISSGGSTYYADSVKGRFTISRDNAKNTVYLQMNSLKPEDTAVNNCAADRRSKYDYWGQGTQVTVSA” as the sequence, how does the “polyreactivity (PSR sort gate)” value read?
Its value is “low polyreactivity”.

Which “polyreactivity (PSR sort gate)” value does the source give for “QVQLVESGGGLVQAGGSLRLSCAASGRIYDYMGWYRQAPGKERELVAAITSSGVSTYYADSVKGRFTISRDNAKNTVYLQMNSLKPEDTAVYYCAAERVYIVWFTHEIFNYWGQGTQVTVSS” here?
Its value is “high polyreactivity”.

With “QVQLVESGGGLVQAGGSLRLSCAASGRIYGKYAMGWSRQAPGKERELVASISYSGGSTYYADSVKGRFTISRDNAKNTVYLHMISLKPEDTAVYYCAARKWRYGRYVYWGQGTQVTVSS” as the sequence, how does the “polyreactivity (PSR sort gate)” value read?
The value was “high polyreactivity”.

Which “polyreactivity (PSR sort gate)” value does the source give for “QVQLVESGGGLVQAGGSLRLSCAASGRIYGVYALGWYRQAPGKERELVAAITSSGGSTYYADSVKGRFTISRDNAKNTVYLQMNSLKPEDTAVYYCAADNTFRDDYFLYYLFNYNYWGQGTQVTVSS” here?
Its value is “low polyreactivity”.

Which “polyreactivity (PSR sort gate)” value does the source give for “QVQLVESGGGLVQAGGSLRLSCAASGRIYKRNAMGWYRQAPGKERELVAAITGNVGSTYYADSVKGRFTISRDNAKNTVYLQMNSLKPEDTAVYYCAAETYPVWGVAFYYWGQGTQVTVSS” here?
The value was “high polyreactivity”.

Which “polyreactivity (PSR sort gate)” value does the source give for “QVQLVESGGGLVQAGGSLRLSCAASGRIYNGNAMGWYRQAPGKERELVAAITSDGSTYADSVKGRFTISRDNAKNTVYLHMNSLKPEATADYYCATDDPLAYGSFGPYQPYDYWGQGTQVTVSS” here?
Its value is “low polyreactivity”.

Which “polyreactivity (PSR sort gate)” value does the source give for “QVQLVESGGGLVQAGGSLRLSCAASGRIYNPNGMGWYRQAPGKERELVAVITRSGTSTYYADSVKGRFTISRDNAKNTVYLQMNSLKPEDTAVYYCNAGKKYVDYGGPSSRYYWGQGTQVTVSS” here?
Its value is “low polyreactivity”.

For “QVQLVESGGGLVQAGGSLRLSCAASGRIYRDYAMGWYRQAPGKERELVATITWSGATTYYADSVKGRFTISRDNAKNTVYLQMNSLKPEDTAVYYCAKVYPRFYTFGEYNYWGQGTQVTVSS”, which “polyreactivity (PSR sort gate)” value is on record?
The value was “low polyreactivity”.

Which “polyreactivity (PSR sort gate)” value does the source give for “QVQLVESGGGLVQAGGSLRLSCAASGRIYSQYDMGWYRQAPGKESELVAAISGGVGTNYADSVKGRFTISRDNAKNTVYLQMNSLKPEDSAVYYCAADVGYLGRSRGYPSDDYDYWGQGTQVTVSS” here?
Its value is “low polyreactivity”.

For “QVQLVESGGGLVQAGGSLRLSCAASGRIYSVYAMGWYRQAPGKERELVAAIRSGDRTNYADSVKGRFTISRDNAKNTVYLQMNSLKPEDTAVYYCAAVQRPYYYWGQGTQVTVSS”, which “polyreactivity (PSR sort gate)” value is on record?
The value was “high polyreactivity”.
